Experimental data published in US20150010546A1 (Ablynx, published 2015).

Key:
[1] = target: T1, human HGF (R&D material and Peprotech material, values averaged over both) (human, UniProt P14210 32-728); assay: SPR (Biacore T100), purified Nanobody, biphasic dissociation, kd2 fitted 300-720 s after injection start
T1 construct: As printed they differ in one letter

[2] = target: T2, human HGF (R&D Systems, 294-HG/CF) (human, UniProt P14210 32-728); assay: SPR (Biacore T100), HGF amine-coupled to CM5 chip, periplasmic extract at one dilution
T2 construct: The entry begins at QRKRR, without signal peptide; Amine-coupled to the chip in SPR and biotinylated in AlphaScreen; also called rec hHGF (R&D systems)
T2 sequence (P14210 32-728 limits assumed): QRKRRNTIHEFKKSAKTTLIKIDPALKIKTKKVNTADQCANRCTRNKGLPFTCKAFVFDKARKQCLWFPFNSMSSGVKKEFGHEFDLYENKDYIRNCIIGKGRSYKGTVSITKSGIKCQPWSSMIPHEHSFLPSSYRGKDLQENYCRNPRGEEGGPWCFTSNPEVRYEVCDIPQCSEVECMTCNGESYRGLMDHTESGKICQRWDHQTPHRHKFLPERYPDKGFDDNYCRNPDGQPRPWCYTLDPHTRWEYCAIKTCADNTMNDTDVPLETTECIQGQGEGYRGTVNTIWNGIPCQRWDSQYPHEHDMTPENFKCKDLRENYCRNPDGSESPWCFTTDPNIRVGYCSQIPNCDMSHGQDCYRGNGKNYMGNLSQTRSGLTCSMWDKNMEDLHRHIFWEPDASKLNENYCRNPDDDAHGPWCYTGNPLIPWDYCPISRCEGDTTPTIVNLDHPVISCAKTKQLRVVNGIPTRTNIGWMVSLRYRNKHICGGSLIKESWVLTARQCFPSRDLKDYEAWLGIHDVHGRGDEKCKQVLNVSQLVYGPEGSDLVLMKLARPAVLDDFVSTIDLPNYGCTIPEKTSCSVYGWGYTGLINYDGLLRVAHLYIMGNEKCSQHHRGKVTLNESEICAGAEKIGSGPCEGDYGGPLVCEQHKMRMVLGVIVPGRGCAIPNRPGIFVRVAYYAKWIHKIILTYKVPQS
Protocol: Off-rate constants (Koff) of individual Nanobodies were determined by surface plasmon resonance on a Biacore T100 instrument.
Human HGF (R&D) was amine-coupled to a CM5 sensor chip at a density of 2500 relative units. Remaining reactive groups were inactivated using ethanolamine. Nanobody binding was assessed at a single dilution of periplasmic extract, whereas c-Met was tested with a single concentration of 10 nM. Each sample was injected for 2 min at a flow rate of 45 μl/min to allow for binding to chip-bound antigen. Next, binding buffer without Nanobody was sent over the chip at the same flow rate to allow dissociation of bound Nanobody. After 10 min, remaining bound analyte was removed by injecting regeneration solution (1M NaCl, 50 mM NaOH).

[3] = target: T1, human HGF (R&D material and Peprotech …); assay: SPR (Biacore T100), purified Nanobody, biphasic dissociation, kd1 fitted 125-185 s after injection start
[4] = target: T1, human HGF (R&D material and Peprotech …); assay: SPR (Biacore T100), summary table
[5] = target: T2, human HGF (R&D Systems, 294-HG/CF); assay: AlphaScreen competition, biotinylated HGF and c-Met-Fc, dilution series of purified Nanobody
Protocol: (§1) In brief, 5 μl of 1/5 prediluted periplasmic extract of individual Nanobody clones were incubated with 3 nM biotinylated HGF, 2 nM c-Met-Fc, streptavidin coated donor beads and anti-human IgG1 Fc Nanobody covalently coupled AlphaScreen acceptor beads. Monoclonal antibody clone 24612 (R&D systems) known to inhibit the HGF/c-Met-Fc interaction, was used as a positive control. Assays were read in an Envision AlphaScreen™ option fitted multimode reader (Perkin Elmer). Individual clones were scored as putative HGF/c-Met-Fc interaction inhibiting if the presence of the periplasmic extract decreased the fluorescent signal of the acceptor beads. Both inhibitory and non-inhibitory clones were identified. A 10-fold reduction in signal with respect to the negative control (irrelevant periplasmic extract and buffer) was used to select the HGF/c-Met inhibiting Nanobodies. As a positive control, anti-HGF monoclonal antibody (R&D systems, clone 24612) was included. FIG. 2 depicts an example of screen of periplasmic extracts using AlphaScreen.
(§2) Serial dilutions of purified Nanobodies were then analyzed for their ability to block the interaction of human HGF with c-Met-Fc using the same AlphaScreen™ assay as described above (1.4). […]

[6] = target: T1, human HGF (R&D material and Peprotech …); assay: SPR (Biacore T100), purified Nanobody, average of R&D and Peprotech HGF
Protocol: Affinity constants (Kd) of individual purified Nanobody clones were determined by surface plasmon resonance on a Biacore T100 instrument essentially as described above. The average was taken of an analysis performed on R&D material and Peprotech material.

[7] = target: T2, human HGF (R&D Systems, 294-HG/CF); assay: AlphaScreen competition, serial dilution of purified Nanobody; inhibition of biotinylated human HGF binding to c-Met-Fc
Protocol: as §1, §2

T1 sequence (P14210 32-728 limits assumed): as above

Row | Binder | koff [2] [s⁻¹] | koff [4] [s⁻¹] | IC50 [5] [nM] | also measured
1 | 6F6 (VHH, anti-HGF Nanobody clone; not shown: c-myc and His6 tags) VHH: EVQLVESGGGLVQPGGSLRLSCAASGSILGINAMGWYRQAPGKQRELVAVINSGGSTNYADSVKGRFTISRDNAKNTVYLQMNSLKPEDTAVYYCNADEWGDYPGQVYDYWGQGTQVTVSS | 0.00545 | – | – | koff [1]: 0.00213 s⁻¹; koff [3]: 0.00577 s⁻¹
2 | 6H6 (VHH, anti-HGF Nanobody clone; not shown: c-myc and His6 tags) VHH: EVQLMESGGGLVQAGGSLRLSCAASGRTFSSYAMGWFRQAPGKERENVAAISSSGGYTYYPDSVKGRFTISRDTAKNTVYLQMNSLKPDDTAVYYCAGTQPNFGWQLLLLQTEYDYWGQGTQVTVSS | 0.0139 | 0.003 | 26.7 | koff [1]: 0.00332 s⁻¹; koff [3]: 0.00313 s⁻¹
3 | 1F3 (VHH) VHH 1: EVQLVESGGGLVQSGGSLKLSCAASGFTFSNYFMSWVRQTPEKRLEWVAYISSGGGSTYYPDSVKGRFTISRDNAKNTLYLQMSSLKSEDTAMYYCVRQGDGYYGDYAMDYWGQGTSVTVSS VHH 2: DIQMTQSPASLSVSVGETVTITCRASENIYSNLAWYQQKQGKSPQLLVYDATHLPDGVPSRFSGSGSGTQFSLKINSLQSEDFGSYYCQHFWGTPYTFGGGTRLEIKR | 0.00345 | – | – | –
4 | 1E2 (VHH, anti-HGF Nanobody clone; not shown: c-myc and His6 tags) VHH: EVQLVESGGGLVQPGGSLRLSCAASGRTFSSYAMGWFRQAPGKEREFVAGISWSGSSSYYADSVKGRFTISRDNAKNTVYLQMNSLKPEDTAVYYCAADPVGRADLYEYDYWGQGTQVTVSS | 0.00312 | 0.0001 | 1.8 | Kd [4]: 1.36 nM; Kd [6]: 1.36 nM; koff [6]: 0.0001 s⁻¹; kon [6]: 75200 M⁻¹ s⁻¹
5 | 1C7 (VHH, anti-HGF Nanobody clone, tested as periplasmic extract; not shown: c-myc and His6 tags) VHH: EVQLVESGGGLVQAGGSLRLSCAASGRTFSSYAMGWFRQAPGKEREFVAGISWSGGSTYYADSVKGRFTISRDNAKNTVYLRMNSLKPEDTAVYYCAADPVGRADLYEYDYWGQGTQVTVSS | 0.00286 | – | – | –
6 | 6B2 (VHH, anti-HGF Nanobody clone; not shown: c-myc and His6 tags) VHH: EVQLVESGGGLVQAGGSLRLSCAASGRTFSSYAMGWFRQAPGKEREFVAAINWSGDSTYYADSVKGRFTISRDNAKNTVYLQMNSLKPEDTAVYYCAAGDVGRPDLYEYDYWGQGTQVTVSS | 0.000774 | ≤ 1e-05 | 2.8 | Kd [4]: ≤ 0.08 nM; Kd [6]: 0.08 nM; koff [6]: 2.15e-06 s⁻¹; kon [6]: 27800 M⁻¹ s⁻¹
7 | 10G3 (VHH, anti-HGF Nanobody clone, tested as periplasmic extract; not shown: c-myc and His6 tags) VHH: EVQLVESGGGLVQAGGSLRLSCADSGRTFSSYAMGWFRQAPGKEREFVAGVNWSGDSTYYADSVKGRFTISRDNAKNTVYLQMNSLKPEDAAVYYCAADPVGRADLYEYDYWGQGTQVTVSS | 0.000377 | – | – | –
8 | 7G6 (VHH, anti-HGF Nanobody clone; not shown: c-myc and His6 tags) VHH: EVQLVESGGGLVQAGGSLRLSCAVSGRTFSPYTMGWFRRAPGKEREFVAARTWSGGVAWYADSVKGRFTISSDNAENMVYLQMNSLKPEDTAVYYCAAKSPGRTYSPREERAYARWGQGTQVTVSS | 0.000936 | – | – | Kd [6]: 0.67 nM; koff [6]: 0.000691 s⁻¹; kon [6]: 1.06e+06 M⁻¹ s⁻¹; IC50 (read off the curve) [7]: ~3 nM
9 | 6B6 (VHH, anti-HGF Nanobody clone, tested as periplasmic extract; not shown: c-myc and His6 tags) VHH: EVQLVESGGGLVQPGGSLRLSCAASGFTFDDYAMSWGRQAPGKGLEWVSAISWNGGSTYYAESMKGRFTVSRDNAKNTLYLQMNSLKSEDTAVYYCAKALDPLGVLAGTSGIYDYWGQGTQVTVSS | 9.37e-06 | – | – | –
10 | 6G6 (VHH, anti-HGF Nanobody clone; not shown: c-myc and His6 tags) VHH: EVQLVESGGGLAQAGGSLRLSCAASGRSLSNYAMGWFRQAPGKEREIVCAISRSGSITTYADSVKGRFTIAKDNAANTVYLQMNSLKPEDTAAYYCAADPMYYGIPDQNWDYWGQGTQVTVSS | 0.00178 | 0.006 | 2.8 | Kd [4]: 7.37 nM; Kd [6]: 7.37 nM; koff [6]: 0.00573 s⁻¹; kon [6]: 753000 M⁻¹ s⁻¹
11 | 9E6 (VHH, anti-HGF Nanobody clone, tested as periplasmic extract; not shown: c-myc and His6 tags) VHH: EVQLVESGGGLAQAGGSLRLSCAASGRSLSNYAMGWFRQAPGKEREIVCAISRSGSITTYADSVKGRFTIAKDNAANTVYLQMNSLKPEDTAAYYCAADPMYYGIPDQNWDYWGQGTQVTVSS | 0.00218 | – | – | –
12 | 6E11 (VHH, anti-HGF Nanobody clone, tested as periplasmic extract; not shown: c-myc and His6 tags) VHH: EVQLVESGGGLAQAGGSLRLSCAASGRSLSNYAMGWFRQAPGKEREIVCAISRSGSITTYADSVKGRFTIAKDNAANTVYLQMNSLKPEDTAAYYCAADPMYYGIPDQNWDYWGQGTQVTVSS | 0.00168 | – | – | –
13 | 6E6 (VHH, anti-HGF Nanobody clone, tested as periplasmic extract; not shown: c-myc and His6 tags) VHH: EVQLVESGGGLAQAGGSLRLSCAASGRSLSNYAMGWFRQAPGKEREIVCAISRSGSITTYADSVKGRFTIAKDNAANTVYLQMNSLKPEDTAAYYCAADPMYYGIPDQNWDYWGQGTQVTVSS | 0.0017 | – | – | –
14 | 5D10 (VHH, anti-HGF Nanobody clone, tested as periplasmic extract; not shown: c-myc and His6 tags) VHH: EVQLVESGGGLAQAGGSLRLSCAASGRSLSNYAMGWFRQAPGKEREIVCAISRSGSITTYADSVKGRFTIAKDNAANTVYLQMNSLKPEDTAAYYCAADPMYYGIPDQNWDYWGQGTQVTVSS | 0.00199 | – | – | –
15 | 6A6 (VHH, anti-HGF Nanobody clone, tested as periplasmic extract; not shown: c-myc and His6 tags) VHH: EVQLVESGGGLAQAGGSLRLSCAASGRSLSNYAMGWFRQAPGKEREIVCAISRSGSITTYADSVKGRFTIAKDNAANTVYLQMNSLKPEDTAAYYCAADPMYYGIPDQNWDYWGQGTQVTVSS | 0.00164 | – | – | –
16 | 5B7 (VHH, anti-HGF Nanobody clone, tested as periplasmic extract; not shown: c-myc and His6 tags) VHH: EVQLVESGGGLAQAGGSLRLSCAASGRSLSNYAMGWFRQAPGKEREIVCAISRSGSITTYADSVKGRFTIAKDNAANTVYLQMNSLKPEDTAAYYCAADPMYYGIPDQNWDYWGQGTQVTVSS | 0.00175 | – | – | –
17 | 5E8 (VHH, anti-HGF Nanobody clone, tested as periplasmic extract; not shown: c-myc and His6 tags) VHH: EVQLVESGGGLAQAGGSLRLSCAASGRSLSNYAMGWFRQAPGKEREIVCAISRSGSITTYADSVKGRFTIAKDNAANTVYLQMNSLKPEDTAAYYCAADPMYYGIPDQNWDYWGQGTQVTVSS | 0.00163 | – | – | –
18 | 1E9 (VHH, anti-HGF Nanobody clone; not shown: c-myc and His6 tags) VHH: EVQLVESGGGLVQPGGSLRLSCAASGFTLDHYTIGWFRQAPGNEREGVSCISSLDGSTYYADSVKGRFTISRDNAKDTVYLQMNSLKPEDTAVYYCAVAGCGAYGLIPYDYWGQGTQVTVSS | 0.00314 | 0.0005 | 4.5 | Kd [4]: 7.16 nM; Kd [6]: 7.16 nM; koff [6]: 0.00052 s⁻¹; kon [6]: 92000 M⁻¹ s⁻¹
19 | 9G6 (VHH, anti-HGF Nanobody clone; not shown: c-myc and His6 tags) VHH: EVQLVESGGGLVQAGGSLRLSCAASGRTLSDYTMGWFRQAPGKEREFVARINTGGPITSYSDSVKGRFTISRDNAKNTVYLQMNSLKPEDTAVYNCAARLPTKMSPRDYSSYAYRGQGTQVTVSS | 0.00107 | 0.001 | 6.6 | koff [1]: 0.00102 s⁻¹; koff [3]: 0.00237 s⁻¹
20 | 5G9 (VHH, anti-HGF Nanobody clone, tested as periplasmic extract; not shown: c-myc and His6 tags) VHH: EVQLVESGGGLVQTGGSLRLSCAASGRTFSPYAAGWFRHAPGKEREFVTAITWSGGSTYYADSVKGRFTISRDNAKNTVYLQMNSLKPEDTAVYYCAASYRWGITHEFDYWGQGTQVTVSS | 0.0008 | – | – | –
21 | 6E10 (VHH, anti-HGF Nanobody clone; not shown: c-myc and His6 tags) VHH: EVQLVESGGGLVQAGGSLRLSCAASGRTDSSYAMGWFRQAPGKEHEFVAAISWSGGSTYYADSVKGRFTISRDNAKNTLYLQMNSLKPEDTAVYYCGASYRWGITHEYEYWGQGTQVTVSS | 0.000324 | 5e-05 | 3 | Kd [4]: 1.14 nM; Kd [6]: 1.14 nM; koff [6]: 5.5e-05 s⁻¹; kon [6]: 49900 M⁻¹ s⁻¹
